# Results: PMC6851300, “Calcium-activated chloride channel regulator 1 (CLCA1) forms non-covalent oligomers in colonic mucus and has mucin 2–processing properties” (The Journal of Biological Chemistry, 2019)
# B1: Uncleaved recombinant human CLCA1 secreted from transfected CHO-K1 cells (natural protein, UniProt A8K7I4 22-914, looked up)
# chain: NSLIQLNNNGYEGIVVAIDPNVPEDETLIQQIKDMVTQASLYLLEATGKRFYFKNVAILIPETWKTKADYVRPKLETYKNADVLVAESTPPGNDEPYTEQMGNCGEKGERIHLTPDFIAGKKLAEYGPQGRAFVHEWAHLRWGVFDEYNNDEKFYLSNGRIQAVRCSAGITGTNVVKKCQGGSCYTKRCTFNKVTGLYEKGCEFVLQSRQTEKASIMFAQHVDSIVEFCTEQNHNKEAPNKQNQKCNLRSTWEVIRDSEDFKKTTPMTTQPPNPTFSLLQIGQRIVCLVLDKSGSMATGNRLNRLNQAGQLFLLQTVELGSWVGMVTFDSAAHVQNELIQINSGSDRDTLAKRLPAAASGGTSICSGLRSAFTVIRKKYPTDGSEIVLLTDGEDNTISGCFNEVKQSGAIIHTVALGPSAAQELEELSKMTGGLQTYASDQVQNNGLIDAFGALSSGNGAVSQRSIQLESKGLTLQNSQWMNGTVIVDSTVGKDTLFLITWTMQPPQILLWDPSGQKQGGFVVDKNTKMAYLQIPGIAKVGTWKYSLQASSQTLTLTVTSRASNATLPPITVTSKTNKDTSKFPSPLVVYANIRQGASPILRASVTALIESVNGKTVTLELLDNGAGADATKDDGVYSRYFTTYDTNGRYSVKVRALGGVNAARRRVIPQQSGALYIPGWIENDEIQWNPPRPEINKDDVQHKQVCFSRTSSGGSFVASDVPNAPIPDLFPPGQITDLKAEIHGGSLINLTWTAPGDDYDHGTAHKYIIRISTSILDLRDKFNESLQVNTTALIPKEANSEEVFLFKPENITFENGTDLFIAIQAVDKVDLKSEISNIARVSLFIPPQTPPETPSPDETSAPCPNIHINSTIPGIHILKIMWKWIGELQLSIA
# modifications: glycosylated
# notes: human CLCA1, full-length construct, not cut at the self-cleavage site (120 kDa); also called uncleaved rCLCA1; uncleaved CLCA1; source: CHO-K1, transfected, in supernatant
# Tests used:
# [1] = target: 250-kDa (nonreduced) fragment of MUC2-N after cleavage by rCLCA1, D′–D3 and CysD (human); assay: non-reducing SDS-PAGE with SYPRO Ruby stain and immunoblot; recombinant MUC2-N with or without in vitro cleavage by rCLCA1 fractions (18 h, 37 C, 20 mM Tris-HCl pH 7.5, 150 mM NaCl, 10 mM CaCl2), separated without DTT; D3 (MUC2-N3) antibody
# [2] = target: C-terminal cleavage product of human CLCA1 in sigmoid colon mucus and epithelium (human (endogenous in sigmoid colon)) (UniProt A8K7I4); assay: non-reducing SDS-PAGE with immunoblot; mucus and epithelial lysate from mouse distal colon or human sigmoid colon, denatured in SDS sample buffer without DTT (non-reduced) against with 100 mM DTT (reduced), blotted with C-terminal CLCA1 antibodies; shows disulfide-linked species only
# [3] = target: C-terminal cleavage product of mouse Clca1 in distal colon mucus and epithelium (mouse (endogenous in colon)) (UniProt Q9D7Z6); assay: as above
# [4] = target: C-terminal cleavage product of recombinant human CLCA1 in supernatant of transfected CHO-K1 cells (human) (UniProt A8K7I4); assay: non-reducing SDS-PAGE with immunoblot; supernatant from hCLCA1-transfected CHO-K1 cells, reducing or nonreducing sample buffer, blotted with C terminus (3-ar) antibody; shows disulfide-linked species only
# [5] = target: Human CLCA1 in sigmoid colon mucus and epithelial lysate (N- and C-terminal products) (human (endogenous in sigmoid colon)) (UniProt A8K7I4); assay: native gel or EMSA; NativePAGE Novex Bis-Tris 4-16% with G-250; mucus and epithelial lysates from human sigmoid colon, WT and Clca1-/- mouse colon and desalted medium with rCLCA1; blotted with N- or C-terminal CLCA1 antibodies
# [6] = target: Mouse Clca1 in colonic mucus and epithelial lysate (N- and C-terminal products) (mouse (endogenous in colon)) (UniProt Q9D7Z6); assay: as above
# [7] = target: Recombinant human CLCA1 in spent supernatant of rCLCA1-expressing CHO-K1 cells (N- and C-terminal products) (human) (UniProt A8K7I4); assay: as above
# [8] = target: the molecule itself; assay: non-reducing SDS-PAGE with immunoblot; supernatant from hCLCA1-transfected CHO-K1 cells, reducing or nonreducing sample buffer, blotted with C terminus (3-ar) antibody; shows disulfide-linked species only
molecule,measurement,setting,value
"250-kDa (nonreduced) fragment of MUC2-N after cleavage by rCLCA1, D′–D3 and CysD (domain or fragment)",stoichiometry N,[1],3
C-terminal cleavage product of human CLCA1 in sigmoid colon mucus and epithelium (from UniProt A8K7I4 22-914) (domain or fragment),stoichiometry N,[2],2
C-terminal cleavage product of mouse Clca1 in distal colon mucus and epithelium (from UniProt Q9D7Z6 22-913) (domain or fragment),stoichiometry N,[3],2
C-terminal cleavage product of recombinant human CLCA1 in supernatant of transfected CHO-K1 cells (from UniProt A8K7I4 22-914) (domain or fragment),stoichiometry N,[4],2
Human CLCA1 in sigmoid colon mucus and epithelial lysate (N- and C-terminal products) (from UniProt A8K7I4 22-914; A8K7I4 22-914) (complex),stoichiometry N,[5],8
Mouse Clca1 in colonic mucus and epithelial lysate (N- and C-terminal products) (from UniProt Q9D7Z6 22-913; Q9D7Z6 22-913) (complex),stoichiometry N,[6],8
Recombinant human CLCA1 in spent supernatant of rCLCA1-expressing CHO-K1 cells (N- and C-terminal products) (from UniProt A8K7I4 22-914; A8K7I4 22-914) (complex),stoichiometry N,[7],8
B1,stoichiometry N,[8],2
